The record followed here is patent publication US20190046657A1.

What is called Kd is the concentration at which binding is half-saturated. In general, koff refers to the first-order rate constant of dissociation. A low value points to a long-lived complex. As a reminder, the kon is the rate constant with which the complex forms. A low value points to slow association.

The target of assay [1] is mannose-6-phosphate receptor (M6PR). In words: SPR (BIACORE T200), M6PR amine-coupled to CM5 chip, analyte 100 nM to 6.24 nM, HBS-EP pH 7.5, 1:1 Langmuir model. On the technique in general: Surface plasmon resonance follows binding to a sensor surface in real time, without labels.
The target is the same in assay [2]. In words: SPR (BIACORE T200), M6PR amine-coupled to CM5 chip, analyte 200 nM to 12.5 nM in HBS-EP.
The target is the same in assay [3]. Description: SPR (BIACORE T200), M6PR on CM5 chip; the reference itself.
Assay [4] addresses mannose-6-phosphate receptor (M6PR) expressed on CCD986SK cells (human skin fibroblasts) (human). Description: cell-based or functional assay.
Assay [5] deals with mannose-6-phosphate receptor (M6PR). Description: SPR (BIACORE T200), M6PR amine-coupled to CM5 chip, analyte 50 nM to 3.125 nM, HBS-EP pH 7.5, 1:1 Langmuir model.
Assay [6] shares this target. In words: SPR, summary table; relative to galsulfase.
Assay [7] has the same target. Description: SPR, summary table; relative to imiglucerase.
For assay [8] the target is unchanged. Description: SPR (BIACORE T200), M6PR amine-coupled to CM5 chip, analyte 200 nM to 12.5 nM, HBS-EP pH 7.5, 1:1 Langmuir model.
For assay [9] the target is unchanged. Description: SPR (BIACORE T200), M6PR on CM5 chip; relative to agalsidase beta.
For assay [10] the target is unchanged. Description: SPR, summary table; relative to agalsidase β.
The target is the same in assay [11]. In words: SPR (BIACORE T200), M6PR amine-coupled to CM5 chip.
For assay [12] the target is unchanged. Description: SPR (BIACORE T200), M6PR amine-coupled to CM5 chip, analyte 100 nM to 6.25 nM, HBS-EP pH 7.5, 1:1 Langmuir model.
The target is the same in assay [13]. Description: SPR, summary table; relative to iduronidase.

In [1], “galsulfase (from UniProt P15848 39-533) (enzyme)” came in with a dissociation constant Kd of 0.38 nM, a koff of 0.0013 s⁻¹ and an association rate constant (kon) of 3.49e+06 M⁻¹ s⁻¹.
In assay [2], “agalsidase β (from UniProt P06280 32-429) (enzyme)” displayed a dissociation constant Kd of 20 nM, a koff of 0.00273 s⁻¹ and an association rate constant (kon) of 135000 M⁻¹ s⁻¹. In assay [3], this molecule gave a relative KD / binding affinity (% of agalsidase beta) of 100%, a relative ka (% of agalsidase beta) of 100% and a relative kd (% of agalsidase beta) of 100%. Also, the intracellular uptake activity (Kuptake) in assay [4] was determined as 13.7 nM.
In [1], “imiglucerase (from UniProt P04062 40-536) (enzyme)” showed a dissociation constant (Kd) of 17.3 nM, a koff of 0.00387 s⁻¹ and an association rate constant (kon) of 232000 M⁻¹ s⁻¹.
In assay [5], “iduronidase (from UniProt P35475 26-653) (enzyme)” registered a dissociation constant Kd of 0.59 nM, a koff of 0.00565 s⁻¹ and an on-rate constant (kon) of 1.69e+07 M⁻¹ s⁻¹.
The molecule “long-acting galsulfase conjugate (galsulfase-polyethylene glycol linker-immunoglobulin Fc conjugate) (from UniProt P15848 39-533)” came in with a Binding affinity to M6PR (vs. 1st ERT) in assay [6] of 25%. For the same molecule, in assay [1], the dissociation constant (Kd) came to 1.48 nM, the koff stood at 0.00122 s⁻¹ and the kon was 832000 M⁻¹ s⁻¹.

B1: long-acting imiglucerase conjugate (imiglucerase-polyethylene glycol linker-immunoglobulin Fc conjugate) (protein, part only; not given: Fc and PEG linker, human, UniProt P04062 40-536, looked up, not shown: a dimerising Fc or GST)
chain: ARPCIPKSFGYSSVVCVCNATYCDSFDPPTFPALGTFSRYESTRSGRRMELSMGPIQANHTGTGLLLTLQPEQKFQKVKGFGGAMTDAAALNILALSPPAQNLLLKSYFSEEGIGYNIIRVPMASCDFSIRTYTYADTPDDFQLHNFSLPEEDTKLKIPLIHRALQLAQRPVSLLASPWTSPTWLKTNGAVNGKGSLKGQPGDIYHQTWARYFVKFLDAYAEHKLQFWAVTAENEPSAGLLSGYPFQCLGFTPEHQRDFIARDLGPTLANSTHHNVRLLMLDDQRLLLPHWAKVVLTDPEAAKYVHGIAVHWYLDFLAPAKATLGETHRLFPNTMLFASEACVGSKFWEQSVRLGSWDRGMQYSHSIITNLLYHVVGWTDWNLALNPEGGPNWVRNFVDSPIIVDITKDTFYKQPMFYHLGHFSKFIPEGSQRVGLVASQKNDLDAVALMHPDGSAVVVVLNRSSKDVPLTIKDPAVGFLETISPGYSIHTYLWRRQ
modifications: N-terminus covalently linked to a 10 kDa polyethylene glycol linker (ALD-PEG-ALD), whose other end is linked to the N-terminus of one chain of the immunoglobulin Fc
Turning to B1, in assay [7], the Binding affinity to M6PR (vs. 1st ERT) was found to be 22%. Moreover, in [8], the dissociation constant Kd was determined as 79.6 nM, the off-rate constant (koff) was determined as 0.0039 s⁻¹ and the kon was found to be 49000 M⁻¹ s⁻¹.

B2: long-acting agalsidase β conjugate (agalsidase β-polyethylene glycol linker-immunoglobulin Fc conjugate) (protein, part only; not given: Fc and PEG linker, UniProt P06280 32-429, looked up, not shown: a dimerising Fc or GST)
chain: LDNGLARTPTMGWLHWERFMCNLDCQEEPDSCISEKLFMEMAELMVSEGWKDAGYEYLCIDDCWMAPQRDSEGRLQADPQRFPHGIRQLANYVHSKGLKLGIYADVGNKTCAGFPGSFGYYDIDAQTFADWGVDLLKFDGCYCDSLENLADGYKHMSLALNRTGRSIVYSCEWPLYMWPFQKPNYTEIRQYCNHWRNFADIDDSWKSIKSILDWTSFNQERIVDVAGPGGWNDPDMLVIGNFGLSWNQQVTQMALWAIMAAPLFMSNDLRHISPQAKALLQDKDVIAINQDPLGKQGYQLRQGDNFEVWERPLSGLAWAVAMINRQEIGGPRSYTIAVASLGKGVACNPACFITQLLPVKRKLGFYEWTSRLRSHINPTGTVLLQLENTMQMSLKDLL
modifications: N-terminus covalently linked to a 10 kDa polyethylene glycol linker (ALD-PEG-ALD), whose other end is linked to the N-terminus of one chain of the immunoglobulin Fc
In assay [9], B2 displayed a relative KD / binding affinity (% of agalsidase beta) of 67.6%, a relative ka (% of agalsidase beta) of 70.4% and a relative kd (% of agalsidase beta) of 101%. In assay [10], this molecule displayed a Binding affinity to M6PR (vs. 1st ERT) of 68%. In addition, in [11], the Kd amounted to 29.6 nM, the koff came out at 0.00277 s⁻¹ and the on-rate constant (kon) amounted to 80000 M⁻¹ s⁻¹. For the same molecule, in assay [4], the Intracellular uptake (vs. 1st ERT) stood at 47% and the intracellular uptake activity (Kuptake) worked out at 29.3 nM.

B3: long-acting iduronidase conjugate (laronidase-polyethylene linker-immunoglobulin Fc conjugate) (protein, part only; not given: Fc and PEG linker, UniProt P35475 26-653, looked up, not shown: a dimerising Fc or GST)
chain: AEAPHLVHVDAARALWPLRRFWRSTGFCPPLPHSQADQYVLSWDQQLNLAYVGAVPHRGIKQVRTHWLLELVTTRGSTGRGLSYNFTHLDGYLDLLRENQLLPGFELMGSASGHFTDFEDKQQVFEWKDLVSSLARRYIGRYGLAHVSKWNFETWNEPDHHDFDNVSMTMQGFLNYYDACSEGLRAASPALRLGGPGDSFHTPPRSPLSWGLLRHCHDGTNFFTGEAGVRLDYISLHRKGARSSISILEQEKVVAQQIRQLFPKFADTPIYNDEADPLVGWSLPQPWRADVTYAAMVVKVIAQHQNLLLANTTSAFPYALLSNDNAFLSYHPHPFAQRTLTARFQVNNTRPPHVQLLRKPVLTAMGLLALLDEEQLWAEVSQAGTVLDSNHTVGVLASAHRPQGPADAWRAAVLIYASDDTRAHPNRSVAVTLRLRGVPPGPGLVYVTRYLDNGLCSPDGEWRRLGRPVFPTAEQFRRMRAAEDPVAAAPRPLPAGGRLTLRPALRLPSLLLVHVCARPEKPPGQVTRLRALPLTQGQLVLVWSDEHVGSKCLWTYEIQFSQDGKAYTPVSRKPSTFNLFVFSPDTGAVSGSYRVRALDYWARPGPFSDPVPYLEVPVPRGPPSPGNP
modifications: N-terminus covalently linked to a 10 kDa polyethylene glycol linker (ALD-PEG-ALD), whose other end is linked to the N-terminus of one chain of the immunoglobulin Fc
In [12], B3 came in with a Kd of 4.72 nM, a koff of 0.00223 s⁻¹ and a kon of 474000 M⁻¹ s⁻¹. The Binding affinity to M6PR (vs. 1st ERT) in [13] was 13%.
